According to patent EP4755449A2 (CHUGAI SEIYAKU KABUSHIKI KAISHA, dated 2026):

T1: cyno Fc gamma RIIb extracellular domain, His-tagged (cynomolgus monkey)
T1 construct: also called cynoFcgRIIb
T1 chain: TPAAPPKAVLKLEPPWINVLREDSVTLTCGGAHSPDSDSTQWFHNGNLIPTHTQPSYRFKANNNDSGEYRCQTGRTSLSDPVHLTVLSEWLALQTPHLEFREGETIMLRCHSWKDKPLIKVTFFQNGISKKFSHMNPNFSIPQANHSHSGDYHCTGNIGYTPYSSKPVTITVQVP

T2: human Fc gamma RIIb extracellular domain, His-tagged (human, UniProt P31994 43-217)
T2 construct: also called FcgRIIb
T2 sequence: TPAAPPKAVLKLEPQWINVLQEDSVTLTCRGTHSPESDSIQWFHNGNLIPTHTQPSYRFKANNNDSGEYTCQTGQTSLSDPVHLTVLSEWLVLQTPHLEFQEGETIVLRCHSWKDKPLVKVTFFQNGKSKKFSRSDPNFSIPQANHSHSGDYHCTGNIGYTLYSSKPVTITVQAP


Assays:
[1] = target: T1, cyno Fc gamma RIIb extracellular …; experiment: SPR 25C
[2] = target: T2, human Fc gamma RIIb extracellular …; experiment: SPR 25C

Row | Binder | binding result [1] | binding result [2] | KD fold vs SG1 [2] [fold]
1 | M103205H795-SG1 K334Y/M103202L889-SK1 (antibody, human IgG1, kappa, copies: 2 + 2) heavy: not shown light: DIVMTQSPATLSLSPGERATLSCTSSQSVYHANWLSWFQQKPGQPPKLLIYWASTLAYGVPSRFSGSGSGTDFTLTISSLQPEDAATYYCAGGYGGGRYAFGQGTKVEIKRTVAAPSVFIFPPSDEQLKSGTASVVCLLNNFYPREAKVQWKVDNALQSGNSQESVTEQDSKDSTYSLSSTLTLSKADYEKHKVYACEVTHQGLSSPVTKSFNRGEC | binds | binds | –
2 | M103205H795-SG1 E233D/M103202L889-SK1 (antibody, human IgG1, kappa, copies: 2 + 2) heavy: not shown light: DIVMTQSPATLSLSPGERATLSCTSSQSVYHANWLSWFQQKPGQPPKLLIYWASTLAYGVPSRFSGSGSGTDFTLTISSLQPEDAATYYCAGGYGGGRYAFGQGTKVEIKRTVAAPSVFIFPPSDEQLKSGTASVVCLLNNFYPREAKVQWKVDNALQSGNSQESVTEQDSKDSTYSLSSTLTLSKADYEKHKVYACEVTHQGLSSPVTKSFNRGEC | binds | binds | –
3 | M103205H795-SG1 G236A/M103202L889-SK1 (antibody, human IgG1, kappa, copies: 2 + 2) heavy: not shown light: DIVMTQSPATLSLSPGERATLSCTSSQSVYHANWLSWFQQKPGQPPKLLIYWASTLAYGVPSRFSGSGSGTDFTLTISSLQPEDAATYYCAGGYGGGRYAFGQGTKVEIKRTVAAPSVFIFPPSDEQLKSGTASVVCLLNNFYPREAKVQWKVDNALQSGNSQESVTEQDSKDSTYSLSSTLTLSKADYEKHKVYACEVTHQGLSSPVTKSFNRGEC | binds | binds | –
4 | MS103205H795-MY351/M103202L889-SK1 (antibody, also called MS1032LO06-MY351; copies: 2 + 2) heavy: QVTLKESGPVLVKPTETLTLTCTVSGIDLSHDDISWVRQAPGKGLEWVGIISYAGSTYYASWAKGRLTISKDTSKNQVVLTMTNMDPVDTATYYCARGVPAYSHGGDLWGQGTLVTVSSASTKGPSVFPLAPSSKSTSGGTAALGCLVKDYFPEPVTVSWNSGALTSGVHTFPAVLQSSGLYSLSSVVTVPSSSLGTQTYICNVNHKPSNTKVDKKVEPKSCDKTHTCPPCPAPELLNGPSVFLFPPKPKDTLMISRTPEVTCVVVDVSDEDPEVKFNWYVDGVEVHNAKTKPREEQYNSTYRVVSVLTVLHRDWLNGKEYKCKVSNKALPKPIEKTISKAKGQPREPQVYTLPPSREEMTKNQVSLTCLVKGFYPSDIAVEWESNGQPENNYKTTPPVLDSDGSFFLYSKLTVKKSRWQQGNVFSCSVMHEALHNHYTQKSLSLSP light: DIVMTQSPATLSLSPGERATLSCTSSQSVYHANWLSWFQQKPGQPPKLLIYWASTLAYGVPSRFSGSGSGTDFTLTISSLQPEDAATYYCAGGYGGGRYAFGQGTKVEIKRTVAAPSVFIFPPSDEQLKSGTASVVCLLNNFYPREAKVQWKVDNALQSGNSQESVTEQDSKDSTYSLSSTLTLSKADYEKHKVYACEVTHQGLSSPVTKSFNRGEC | – | – | 5
5 | MS103205H795-PK2/M103202L889-SK1 (antibody, also called MS1032LO06-PK2; copies: 2 + 2) heavy: QVTLKESGPVLVKPTETLTLTCTVSGIDLSHDDISWVRQAPGKGLEWVGIISYAGSTYYASWAKGRLTISKDTSKNQVVLTMTNMDPVDTATYYCARGVPAYSHGGDLWGQGTLVTVSSASTKGPSVFPLAPSSKSTSGGTAALGCLVKDYFPEPVTVSWNSGALTSGVHTFPAVLQSSGLYSLSSVVTVPSSSLGTQTYICNVNHKPSNTKVDKKVEPKSCDKTHTCPPCPAPELLNGPSVFLFPPKPKDTLMISRTPEVTCVVVDVSEEDPEVKFNWYVDGVEVHNAKTKPREEQYNSTYRVVSVLTVLHQDWLNGKEYKCKVSNKALPKPIEKTISKAKGQPREPQVYTLPPSREEMTKNQVSLTCLVKGFYPSDIAVEWESNGQPENNYKTTPMVLDRDGSFFLYSKLTVKKSRWQQGNVFSCSVMHEALHNHYTQKSLSLSP light: DIVMTQSPATLSLSPGERATLSCTSSQSVYHANWLSWFQQKPGQPPKLLIYWASTLAYGVPSRFSGSGSGTDFTLTISSLQPEDAATYYCAGGYGGGRYAFGQGTKVEIKRTVAAPSVFIFPPSDEQLKSGTASVVCLLNNFYPREAKVQWKVDNALQSGNSQESVTEQDSKDSTYSLSSTLTLSKADYEKHKVYACEVTHQGLSSPVTKSFNRGEC | – | – | 8
